Sequences and labels used below:
B1: Y00035 (designed binder)
chain: MGSSHHHHHHGSSLAEAKEAANAELDSYGVQANSIEAIEQGLFVEVVELLKELILAALPASGSVD
notes: From library Ylib001Naive.I
B2: Y00296a (designed binder)
chain: MGSSHHHHHHGSSLAEAKEAAIAELDSKGVGAYQIKFIQLAKSVEHVQLLKQAILADLPASYGS
notes: if it is only 46 residues long, ASYGS must be added at the C-terminus
B3: Y00263 (designed binder)
chain: MGSSHHHHHHGSSLAEAKEAAIAELKSKGVGAYQKSFIELAKSVEHVELLKEAILADLP
notes: Y00032 with D13K
B4: Y00275 (designed binder)
chain: MGSSHHHHHHGSSLAEAKEAAIAELDSKGVGAYQKSFIELAKSVEHVELLKQAILADLP
notes: Y00032 with E39Q
B5: Y00272 (designed binder)
chain: MGSSHHHHHHGSSLAEAKEAAIAELDSKGVGAYQKSFIELGKSVEHVELLKEAILADLP
notes: Y00032 with A28G
B6: Y00274 (designed binder)
chain: MGSSHHHHHHGSSLAEAKEAAIAELDSKGVGAYQKSFIELAKSVEHVQLLKEAILADLP
notes: Y00032 with E35Q
B7: Y00266 (designed binder)
chain: MGSSHHHHHHGSSLAEAKEAAIAELDSKGVSAYQKSFIELAKSVEHVELLKEAILADLP
notes: Y00032 with G18S
B8: Y00296 (designed binder)
chain: MGSSHHHHHHGSSLAEAKEAAIAELDSKGVGAYQIKFIQLAKSVEHVQLLKQAILADLP
notes: Y00293 with E26Q
B9: Y00268 (designed binder)
chain: MGSSHHHHHHGSSLAEAKEAAIAELDSKGVGAYQISFIELAKSVEHVELLKEAILADLP
notes: Y00032 with K22I
B10: Y00271 (designed binder)
chain: MGSSHHHHHHGSSLAEAKEAAIAELDSKGVGAYQKSFIQLAKSVEHVELLKEAILADLP
notes: Y00032 with E26Q
B11: Y00265 (designed binder)
chain: MGSSHHHHHHGSSLAEAKEAAIAELDSKGIGAYQKSFIELAKSVEHVELLKEAILADLP
notes: Y00032 with V17I
B12: Y00264 (designed binder)
chain: MGSSHHHHHHGSSLAEAKEAAIAELDSYGVGAYQKSFIELAKSVEHVELLKEAILADLP
notes: Y00032 with K15Y
B13: Y00269 (designed binder)
chain: MGSSHHHHHHGSSLAEAKEAAIAELDSKGVGAYQKKFIELAKSVEHVELLKEAILADLP
notes: Y00032 with S23K
B14: Y00276 (designed binder)
chain: MGSSHHHHHHGSSLAEAKEAAIAELDSKGVGAYQKSFIELAKSVEHVELLKEAILKDLP
notes: Y00032 with A43K
B15: Y00273 (designed binder)
chain: MGSSHHHHHHGSSLAEAKEAAIAELDSKGVGAYQKSFIELAKSVQHVELLKEAILADLP
notes: Y00032 with E32Q
B16: Y00267 (designed binder)
chain: MGSSHHHHHHGSSLAEAKEAAIAELDSKGVGEYQKSFIELAKSVEHVELLKEAILADLP
notes: Y00032 with A19E
B17: Y00296C (designed binder)
chain: MGSSHHHHHHTIDEWLLAEAKEAAIAELDSKGVGAYQIKFIQLAKSVEHVQLLKQAILADLP
notes: if it is only 46 residues long, TIDEWL must be put before it
B18: Y00299 (designed binder)
chain: MGSSHHHHHHGSSLAEAKEAAIAELDSKGVGAYQIKFIQVAKTVEQVQILKQAILADLPA
notes: From library Ylib002Naive.I
B19: Y02714 (designed binder)
chain: MGSSHHHHHHGSSLAEAKEAAIAELDSKGVGAYQIKFIEIAHTVEEVQLMKQAILADLPA
notes: Y00310 with Q26E
B20: Y02709 (designed binder)
chain: MGSSHHHHHHGSSLAEAKEAALAELDSKGVGAAKIKWIQDAKSVETVQFLKQAILAELPA
notes: Y00358 with I9L
B21: Y02710 (designed binder)
chain: MGSSHHHHHHGSSLAEAKEAAIAELDSYGVGAAKIKWIQDAKSVETVQFLKQAILAELPA
notes: Y00358 with K15Y
B22: Y00304 (designed binder)
chain: MGSSHHHHHHGSSLAEAKEAAIAELDSKGVGAYQIKFIQVAHDVEEVQILKQAILADLPA
notes: From library Ylib002Naive.I
B23: Y02717 (designed binder)
chain: MGSSHHHHHHGSSLAEAKEAAIAELDSYGVGAYQIKFIEIAHTVEEVQLMKQAILADLPA
notes: Y00310 with K15Y + Q26E
B24: Y02711 (designed binder)
chain: MGSSHHHHHHGSSLAEAKEAAIAELDSKGVGAAKIKWIEDAKSVETVQFLKQAILAELPA
notes: Y00358 with Q26E
B25: Y02715 (designed binder)
chain: MGSSHHHHHHGSSLAEAKEAAIAELDSYGVGAAKIKWIEDAKSVETVQFLKQAILAELPA
notes: Y00358 with K15Y + Q26E
B26: Y00358 (designed binder)
chain: MGSSHHHHHHGSSLAEAKEAAIAELDSKGVGAAKIKWIQDAKSVETVQFLKQAILAELPA
notes: From library Ylib002Naive.I
B27: Y02716 (designed binder)
chain: MGSSHHHHHHGSSLAEAKEAAIAELDSYGVGARQIKWIEQAKSVEVVQWLKQAILADLPA
notes: Y00301 with K15Y + Q26E
B28: Y02713 (designed binder)
chain: MGSSHHHHHHGSSLAEAKEAAIAELDSYGVGAYQIKFIQIAHTVEEVQLMKQAILADLPA
notes: Y00310 with K15Y
B29: Y00310 (designed binder)
chain: MGSSHHHHHHGSSLAEAKEAAIAELDSKGVGAYQIKFIQIAHTVEEVQLMKQAILADLPA
notes: From library Ylib002Naive.I
B30: Y00345 (designed binder)
chain: MGSSHHHHHHGSSLAEAKEAAIAELDSKGVGAYQIKFIQVAKTVEAVQAIKQAILADLPA
notes: From library Ylib002Naive.I
B31: Y00296b (designed binder)
chain: MGSSHHHHHHGSSLAEAKEAAIAELDSKGVGAYQIKFIQLAKSVEHVQLLKQAILADLPGYS
notes: if it is only 46 residues long, GYS must be added
B32: Y00032 (designed binder)
chain: MGSSHHHHHHGSSLAEAKEAAIAELDSKGVGAYQKSFIELAKSVEHVELLKEAILADLPASGSVD
B33: Y00125 (designed binder)
chain: MGSSHHHHHHGSSLAEAKEAANAELDSKGVGAYQKSFIELAKSVEHVELLKEAILADLPASGSVD
notes: Differs from Y00032 only in position 9 (N instead of I)
B34: Y00330 (designed binder)
chain: MGSSHHHHHHGSSLAEAKEAAIAELDSKGVGAKYIKMIQMAKHVETVQYMKQAILASLPA
notes: From library Ylib002Naive.I
B35: Y00356a (designed binder)
chain: MGSSHHHHHHGSSLAEAKEAAIAELDSKGVGAKYIKMIQHAHYVEVVQWLKQAILAHLPA
notes: From library Ylib002Naive.I; if it is only 46 residues long, an A must be added at the C-terminus
B36: Y00361 (designed binder)
chain: MGSSHHHHHHGSSLAEAKEAAIAELDSKGVGAKFIKMIQSAKLVETVQLLKQAILADLPA
notes: From library Ylib002Naive.I

One assay concerns the target T1, interleukin 6 (IL-6) (UniProt P05231 30-212).
T1 construct: also called b-IL-6
As to the kind of experiment: SPR, Biacore T200; target immobilized on CM5, His6-tagged Y variant injected; 1:1 Langmuir. Here is the method:
(§1) Kinetic constants (kₐ and kd) and affinities (KD) were determined for Hiss-tagged Y variants using a Biacore T200 instrument (GE Healthcare). Target proteins C4, IL-6 and insulin, respectively, were immobilized in separate flow cells on the carboxylated dextran layer of different CM5 chip surfaces (GE Healthcare).
(§2) Immobilization was performed using amine coupling chemistry according to the manufacturer's protocol and PBS pH 7.4 supplemented with 0.1 Tween20 (PBST 0.1%) as running buffer. The ligand immobilization levels on the surfaces were 3280-8830 RU for C4, 495-1184 RU for IL-6, and 270-282 RU for insulin. One flow cell surface on each chip was activated and deactivated for use as blank during analyte injections. In the kinetic experiment, PBST 0.1% was used as running buffer at a flow rate of 30 μl/min. The analytes, i.e. Y variants, were each diluted in PBST 0.1 buffer at concentrations of 1000, 500, 100, 50 and 10 nM and injected for 5 min, followed by dissociation in running buffer for 3 min. After dissociation, the surfaces were regenerated with one injection of 30 μl 10 mM HCl. Kinetic constants were calculated from the sensorgrams using the Langmuir 1:1 model of Biacore T200 Evaluation software 2.0 (GE Healthcare).
Take B1: the Kd – broadly, the equilibrium constant for the complex coming apart – is 360 nM.

For another assay, the target named is T2, insulin (UniProt P01308 25-54; P01308 90-110, limits assumed).
T2 construct: Mature insulin has two chains (A and B) from one precursor; also called b-insulin
T2 sequence (P01308 25-54 limits assumed, form in doubt, chain 1 of 2): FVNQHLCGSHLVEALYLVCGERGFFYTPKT
T2 sequence (P01308 90-110 limits assumed, form in doubt, chain 2 of 2): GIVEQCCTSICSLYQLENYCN
The description is as above. Here is the method: as §1, §2
B2: the dissociation constant (Kd) was 22 nM.

Take B3: the affinity, expressed as Kd, was 130 nM.

As for B4, binding was characterised by a dissociation constant (Kd) of 59 nM.

Regarding B5, binding was put at a Kd of 110 nM.

Regarding B6, the Kd turned out to be 56 nM.

As for B7, the Kd worked out at 56 nM.

In turn, B8 showed a Kd of 37 nM.

B9: binding was characterised by a dissociation constant (Kd) of 84 nM.

With B10, the Kd is 47 nM.

B11 registered a Kd of 120 nM.

In turn, B12 yielded a Kd of 64 nM.

B13 came in with a Kd of 390 nM.

In turn, B14 gave a Kd of 76 nM.

Take B15: binding was characterised by a dissociation constant (Kd) of 77 nM.

B16: the Kd came to 59 nM.

Molecule B17 displayed a Kd of 51 nM.

As for B18, binding was characterised by a dissociation constant (Kd) of 6.5 nM; the koff – broadly, the first-order rate constant of dissociation – came to 0.002 s⁻¹; the kon (commonly the second-order rate constant of association) was determined as 310000 M⁻¹ s⁻¹.

Molecule B19 displayed an equilibrium dissociation constant (Kd) of 540 nM, a koff of 0.16 s⁻¹ and a kon of 290000 M⁻¹ s⁻¹.

Turning to B20, the Kd turned out to be 380 nM, the koff came to 0.01 s⁻¹ and the kon was 27000 M⁻¹ s⁻¹.

Regarding B21, the dissociation constant (Kd) amounted to 14 nM, the koff was 0.0027 s⁻¹ and the kon came to 190000 M⁻¹ s⁻¹.

Consider B22, for which the Kd is 21 nM, the koff came to 0.0011 s⁻¹ and the kon came out at 85000 M⁻¹ s⁻¹.

Take B23: the Kd came to 610 nM, the koff amounted to 0.02 s⁻¹ and the kon is 33000 M⁻¹ s⁻¹.

Turning to B24, binding was characterised by a dissociation constant (Kd) of 54 nM, the koff was determined as 0.008 s⁻¹ and the kon amounted to 150000 M⁻¹ s⁻¹.

In turn, B25 displayed a Kd of 280 nM, a koff of 0.0019 s⁻¹ and an association rate constant (kon) of 6700 M⁻¹ s⁻¹.

Consider B26, for which binding was characterised by a dissociation constant (Kd) of 10 nM, the koff is 0.0023 s⁻¹ and the kon stood at 220000 M⁻¹ s⁻¹.

Molecule B27 showed a dissociation constant (Kd) of 7.6 nM, a koff of 0.21 s⁻¹ and a kon of 2.7e+07 M⁻¹ s⁻¹.

Molecule B28 registered a Kd of 190 nM, a koff of 0.014 s⁻¹ and a kon of 110000 M⁻¹ s⁻¹.

The molecule B29 returned a Kd of 37 nM, a koff of 0.0063 s⁻¹ and a kon of 170000 M⁻¹ s⁻¹.

Take B30: the Kd turned out to be 61 nM, the koff was 0.017 s⁻¹ and the kon worked out at 290000 M⁻¹ s⁻¹.

In the case of B31, the dissociation constant (Kd) came to 31 nM.

B32 came in with a Kd of 50 nM.

In turn, B33 returned a Kd of 110 nM.

As to B34, the affinity, expressed as Kd, was 120 nM; the koff amounted to 0.0037 s⁻¹; the kon worked out at 30000 M⁻¹ s⁻¹.

As for B35, the Kd is 0.17 nM, the koff was found to be 0.0061 s⁻¹ and the kon is 3.4e+07 M⁻¹ s⁻¹.

B36 displayed a Kd of 310 nM, a koff of 0.0036 s⁻¹ and a kon of 12000 M⁻¹ s⁻¹.

The record behind these values is patent US20210047372A1 (Affibody, published 2021).
